Source: US20220017612A1 (TILOS THERAPEUTICS, published 2022)

Assays:
[1] = target: T1, chicken LAP-TGFβ1 on HT1080 cells (chicken, UniProt P09531 19-391); test: flow cytometry, HT1080 cells
T1 construct: also called chB1
T1 sequence: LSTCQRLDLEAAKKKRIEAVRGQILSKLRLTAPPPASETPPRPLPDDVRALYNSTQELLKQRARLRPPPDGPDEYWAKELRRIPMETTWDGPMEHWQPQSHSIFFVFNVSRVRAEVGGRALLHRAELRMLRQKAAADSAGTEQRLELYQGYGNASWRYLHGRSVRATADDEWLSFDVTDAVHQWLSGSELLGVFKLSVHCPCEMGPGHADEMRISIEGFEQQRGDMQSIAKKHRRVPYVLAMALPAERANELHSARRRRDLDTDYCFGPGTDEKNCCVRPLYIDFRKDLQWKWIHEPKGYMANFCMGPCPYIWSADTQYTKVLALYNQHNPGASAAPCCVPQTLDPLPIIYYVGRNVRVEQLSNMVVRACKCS
Description: (§1) These constructs were subcloned into lentivirus and transduced into HT1080 cells. Successful gene integration was confirmed by expression of a green fluorescent protein (GFP) reporter gene. LAP-TGFβ1 expression was evaluated by flow cytometry using a rabbit monoclonal antibody (Rmab) raised against a peptide from the mature cytokine (residues 250-361) domain (Abeam cat #ab179695), 28G11_(hyb) and 2C9_(hyb). Briefly, 4×10⁵ each of (a) HT1080 cells, (b) HT1080 cells overexpressing human LAP-TGFβ1, (c) HT1080 cells overexpressing chicken LAP-TGFβ1, and (d) HT1080 cells overexpressing human/chicken chimeras #1-#7 were cultured in 96-well plates. The plates were centrifuged for 5 min at 1,500 rpm, liquid was removed, and cells were resuspended with 200 μL FACS buffer. The plates were centrifuged again, diluted primary antibody was added to each well, and the plates were incubated on ice for 20 minutes, followed by centrifugation. The cells were resuspended in 200 μL FACS buffer, centrifuged again, and resuspended in 50 μL diluted secondary antibody (APC-anti-Mouse IgG). The plates were incubated on ice for 20 minutes in the dark, washed twice with 200 μL FACS buffer, and cells from each well (in 200 μL FACS buffer) were read on the Attune NXT instrument. The antibodies were considered to be binding if >10% of cells were GFP+/APC+ and there was visible correlation between the GFP and allophycocyanin (APC) signals (Table 5).

[2] = target: T2, human-chicken LAP-TGFβ1 chimera #2.1 on HT1080 cells (human/chicken chimera, UniProt P01137 30-390); test: flow cytometry, HT1080 cells
Description: as §1

[3] = target: T3, human-chicken LAP-TGFβ1 chimera #2.2 on HT1080 cells (human/chicken chimera, UniProt P01137 30-390); test: flow cytometry, HT1080 cells
T3 construct: also called HT1080-ch2.2
Description: as §1

[4] = target: T4, human LAP-TGFβ1 overexpressed on cells (human, UniProt P01137 30-390); test: flow cytometry, transduced HT1080 cells
T4 construct: HT1080 or P3U1 cells overexpressing wild-type human LAP-TGFβ1; also called HT1080-huB1; HT1080-hβ1
Description: as §1

[5] = target: T1, chicken LAP-TGFβ1 on HT1080 cells; test: flow cytometry, transduced HT1080 cells
Description: as §1

[6] = target: human-chicken LAP-TGFβ1 chimera #1.2 on HT1080 cells (human/chicken chimera, UniProt P01137 30-390); test: flow cytometry, transduced HT1080 cells
Description: as §1

[7] = target: human-chicken LAP-TGFβ1 chimera #1.3 on HT1080 cells (human/chicken chimera, UniProt P01137 30-390); test: flow cytometry, transduced HT1080 cells
Description: as §1

[8] = target: T2, human-chicken LAP-TGFβ1 chimera #2.1 on …; test: flow cytometry, transduced HT1080 cells
Description: as §1

[9] = target: T3, human-chicken LAP-TGFβ1 chimera #2.2 on …; test: flow cytometry, transduced HT1080 cells
Description: as §1

[10] = target: T5, human-chicken LAP-TGFβ1 chimera #2.3 on HT1080 cells (human/chicken chimera, UniProt P01137 30-390); test: flow cytometry, transduced HT1080 cells
T5 construct: also called HT1080-ch2.3
Description: as §1

[11] = target: human-chicken LAP-TGFβ1 chimera #3 on HT1080 cells (human/chicken chimera, UniProt P01137 30-390); test: flow cytometry, transduced HT1080 cells
Description: as §1

[12] = target: T6, human-chicken LAP-TGFβ1 chimera #4 on HT1080 cells (human/chicken chimera, UniProt P01137 30-390); test: flow cytometry, transduced HT1080 cells
T6 construct: also called HT1080-ch4
Description: as §1

[13] = target: human-chicken LAP-TGFβ1 chimera #5 on HT1080 cells (human/chicken chimera); test: flow cytometry, transduced HT1080 cells
Description: as §1

[14] = target: human-chicken LAP-TGFβ1 chimera #6 on HT1080 cells (human/chicken chimera, UniProt P01137 30-390); test: flow cytometry, transduced HT1080 cells
Description: as §1

[15] = target: human-chicken LAP-TGFβ1 chimera #7 on HT1080 cells (human/chicken chimera, UniProt P01137 30-390); test: flow cytometry, transduced HT1080 cells
Description: as §1

LAP-TGFβ1 on U937 cells [16] = target: T7, LAP-TGFβ1 on U937 cells (Homo sapiens, UniProt P01137); test: flow cytometry, U937 cells, Alexa 647 antibody, % LAP+ cells
T7 construct: cell surface, endogenous; also called LAP+ U937 cells
Description: (§2) Anti-LAP antibodies were tested for their ability to bind to U937 cells, a myeloid cell line derived from a patient with histiocytic lymphoma. U937 cells were incubated with FACS buffer and human Fc block followed by incubation with varying concentrations of Alexa 647 conjugated 28G11_hyb, 22F9_mIgG2a, or 20E6_mIgG2a. In a separate experiment U937 cells were incubated with FACS buffer and human Fc block followed by incubation with 10 ug/ml of Alexa 647 conjugated 28G11_hyb, 22F9_mIgG2a, 20E6_mIgG2a or mIgG2a isotype control (FIGS. 10E and 10F). Representative dot plots are shown in FIG. 10G; in these plots, antibodies were at 10 ug/ml.

LAP-TGFβ1 on U937 cells [17] = target: T7, LAP-TGFβ1 on U937 cells; test: flow cytometry dot plot against GARP, U937 cells, Alexa 647 antibody at 10 ug/ml
Description: as §2

T7 sequence (P01137 30-390 limits assumed): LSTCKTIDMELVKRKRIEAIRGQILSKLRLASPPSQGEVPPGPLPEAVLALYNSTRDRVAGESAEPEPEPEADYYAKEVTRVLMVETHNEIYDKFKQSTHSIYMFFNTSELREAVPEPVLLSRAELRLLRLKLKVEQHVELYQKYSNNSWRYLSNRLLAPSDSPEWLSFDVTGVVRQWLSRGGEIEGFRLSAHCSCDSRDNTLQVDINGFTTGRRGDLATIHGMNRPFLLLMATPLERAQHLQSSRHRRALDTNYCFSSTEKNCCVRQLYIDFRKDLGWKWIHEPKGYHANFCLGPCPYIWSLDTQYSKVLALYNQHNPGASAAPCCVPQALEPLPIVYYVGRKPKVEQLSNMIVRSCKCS
T3 sequence (P01137 other isoform, or with tags, fused parts or gaps mutant): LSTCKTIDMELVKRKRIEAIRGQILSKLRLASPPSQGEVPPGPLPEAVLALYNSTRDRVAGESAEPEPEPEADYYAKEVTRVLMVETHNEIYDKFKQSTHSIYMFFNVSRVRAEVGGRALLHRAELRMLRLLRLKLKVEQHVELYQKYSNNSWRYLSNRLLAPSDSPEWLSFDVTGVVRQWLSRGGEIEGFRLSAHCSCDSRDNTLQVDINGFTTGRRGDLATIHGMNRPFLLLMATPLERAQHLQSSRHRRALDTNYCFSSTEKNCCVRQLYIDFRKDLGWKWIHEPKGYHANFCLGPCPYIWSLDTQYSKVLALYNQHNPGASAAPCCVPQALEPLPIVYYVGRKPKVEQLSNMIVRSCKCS
T2 sequence (P01137 other isoform, or with tags, fused parts or gaps mutant): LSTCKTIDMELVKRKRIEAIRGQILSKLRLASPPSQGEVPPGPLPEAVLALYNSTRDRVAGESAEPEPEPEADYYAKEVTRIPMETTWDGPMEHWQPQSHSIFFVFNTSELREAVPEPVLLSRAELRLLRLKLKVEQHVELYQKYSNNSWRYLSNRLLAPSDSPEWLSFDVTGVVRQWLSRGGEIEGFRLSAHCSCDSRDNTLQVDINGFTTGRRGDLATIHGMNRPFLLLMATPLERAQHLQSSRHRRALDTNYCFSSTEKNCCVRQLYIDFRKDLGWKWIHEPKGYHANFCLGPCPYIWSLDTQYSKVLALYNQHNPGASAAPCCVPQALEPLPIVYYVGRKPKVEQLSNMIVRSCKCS
Chain of human-chicken LAP-TGFβ1 chimera #5 on HT1080 cells (human/chicken chimera) (chain, as listed by the source mutant limits assumed): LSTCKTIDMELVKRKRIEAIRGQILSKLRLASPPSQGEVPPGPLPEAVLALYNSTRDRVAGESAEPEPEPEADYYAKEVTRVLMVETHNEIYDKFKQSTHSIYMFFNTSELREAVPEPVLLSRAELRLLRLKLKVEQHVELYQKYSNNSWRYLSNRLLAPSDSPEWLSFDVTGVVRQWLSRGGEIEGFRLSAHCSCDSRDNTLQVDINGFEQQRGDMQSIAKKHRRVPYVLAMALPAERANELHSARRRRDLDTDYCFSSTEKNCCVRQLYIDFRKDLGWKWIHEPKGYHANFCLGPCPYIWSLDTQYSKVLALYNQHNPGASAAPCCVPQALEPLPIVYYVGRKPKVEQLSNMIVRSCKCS
Chain of human-chicken LAP-TGFβ1 chimera #1.3 on HT1080 cells (P01137 other isoform, or with tags, fused parts or gaps mutant): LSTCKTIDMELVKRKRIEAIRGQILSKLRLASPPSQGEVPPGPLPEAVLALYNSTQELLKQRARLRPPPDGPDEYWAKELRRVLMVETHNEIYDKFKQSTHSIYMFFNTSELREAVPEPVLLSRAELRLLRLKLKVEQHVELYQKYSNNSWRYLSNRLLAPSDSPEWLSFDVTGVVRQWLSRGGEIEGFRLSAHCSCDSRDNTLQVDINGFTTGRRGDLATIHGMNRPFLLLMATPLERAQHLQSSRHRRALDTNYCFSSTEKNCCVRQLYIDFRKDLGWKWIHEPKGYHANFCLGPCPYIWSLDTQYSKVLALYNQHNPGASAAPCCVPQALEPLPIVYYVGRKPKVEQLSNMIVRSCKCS
T6 sequence (P01137 other isoform, or with tags, fused parts or gaps mutant): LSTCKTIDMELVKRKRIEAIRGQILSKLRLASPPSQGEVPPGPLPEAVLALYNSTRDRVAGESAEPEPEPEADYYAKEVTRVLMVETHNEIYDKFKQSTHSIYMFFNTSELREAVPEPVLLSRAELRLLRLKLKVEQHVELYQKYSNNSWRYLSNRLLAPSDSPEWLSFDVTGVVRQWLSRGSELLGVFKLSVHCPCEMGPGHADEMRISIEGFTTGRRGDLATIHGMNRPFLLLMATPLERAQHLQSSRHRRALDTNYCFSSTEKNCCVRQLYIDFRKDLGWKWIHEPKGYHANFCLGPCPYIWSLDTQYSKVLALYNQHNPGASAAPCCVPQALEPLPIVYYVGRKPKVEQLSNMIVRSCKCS
T5 sequence (P01137 other isoform, or with tags, fused parts or gaps mutant): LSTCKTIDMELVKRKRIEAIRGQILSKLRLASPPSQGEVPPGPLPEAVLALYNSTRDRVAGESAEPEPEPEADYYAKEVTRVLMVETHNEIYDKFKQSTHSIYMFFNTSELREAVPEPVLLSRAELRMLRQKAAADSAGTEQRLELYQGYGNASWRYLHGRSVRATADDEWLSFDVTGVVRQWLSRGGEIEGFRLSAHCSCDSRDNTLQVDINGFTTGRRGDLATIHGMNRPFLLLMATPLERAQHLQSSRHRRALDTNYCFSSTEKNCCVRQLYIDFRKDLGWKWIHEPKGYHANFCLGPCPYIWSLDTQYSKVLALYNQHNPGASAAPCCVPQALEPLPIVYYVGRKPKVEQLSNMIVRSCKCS
Chain of human-chicken LAP-TGFβ1 chimera #3 on HT1080 cells (P01137 other isoform, or with tags, fused parts or gaps mutant): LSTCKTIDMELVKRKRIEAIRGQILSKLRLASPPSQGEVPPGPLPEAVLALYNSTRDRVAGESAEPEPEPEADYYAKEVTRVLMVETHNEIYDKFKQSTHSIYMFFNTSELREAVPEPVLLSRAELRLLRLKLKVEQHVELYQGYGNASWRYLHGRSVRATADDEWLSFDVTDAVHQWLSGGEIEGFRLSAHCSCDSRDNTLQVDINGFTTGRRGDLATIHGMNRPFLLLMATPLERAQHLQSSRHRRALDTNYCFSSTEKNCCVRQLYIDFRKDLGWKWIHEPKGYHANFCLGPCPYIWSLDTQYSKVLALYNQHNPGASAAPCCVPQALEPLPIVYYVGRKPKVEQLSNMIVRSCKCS
T4 sequence (P01137 30-390): as the sequence (P01137 30-390 limits assumed) above
Chain of human-chicken LAP-TGFβ1 chimera #1.2 on HT1080 cells (P01137 other isoform, or with tags, fused parts or gaps mutant): as the sequence (P01137 30-390 limits assumed) above, with A31T, S32A, S35P, Q36A, G37S, V39T, G42R, E46D, A47D, L49R counted along it
Chain of human-chicken LAP-TGFβ1 chimera #6 on HT1080 cells (P01137 other isoform, or with tags, fused parts or gaps mutant): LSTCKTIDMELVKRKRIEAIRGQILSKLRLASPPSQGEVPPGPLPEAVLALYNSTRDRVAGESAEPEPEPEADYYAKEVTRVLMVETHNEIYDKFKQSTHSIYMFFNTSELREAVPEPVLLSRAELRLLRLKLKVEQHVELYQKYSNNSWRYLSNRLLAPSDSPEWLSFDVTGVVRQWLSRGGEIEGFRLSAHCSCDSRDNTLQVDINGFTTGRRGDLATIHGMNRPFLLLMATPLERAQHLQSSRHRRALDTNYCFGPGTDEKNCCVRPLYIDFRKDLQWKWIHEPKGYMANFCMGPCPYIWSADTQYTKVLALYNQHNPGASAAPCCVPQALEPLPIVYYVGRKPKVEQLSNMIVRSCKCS

binding result [1]: no binding | binding result [2]: no binding | binding result [3]: no binding | % GFP+/APC+ cells [4]: 98.3% | % GFP+/APC+ cells [5]: 0.3% | % GFP+/APC+ cells [6]: 84.1% | % GFP+/APC+ cells [7]: 83% | % GFP+/APC+ cells [8]: 3.5% | % GFP+/APC+ cells [9]: 0.5% | % GFP+/APC+ cells [10]: 94.7% | % GFP+/APC+ cells [11]: 32.2% | % GFP+/APC+ cells [12]: 76.2% | % GFP+/APC+ cells [13]: 41.7% | % GFP+/APC+ cells [14]: 84.9% | % GFP+/APC+ cells [15]: 44.4% | EC50 (read off the curve) (LAP-TGFβ1 on U937 cells [16]): ~30 mg/L | % of cells in Q1 (antibody axis positive, GARP negative) (LAP-TGFβ1 on U937 cells [17]): 6.56% | % of cells in Q2 (antibody axis positive, GARP positive) (LAP-TGFβ1 on U937 cells [17]): 0.16%
B1: 28G11_(hyb) (antibody, mouse IgG2b, kappa, V domains shown)
VH: EVKLVESGGGLVQPGGSLSLSCAASGFTFTDYYMSWVRQPPGKALEWLGFIRNKPNGYTTEYSASVKGRFTISRDNSQSILYLQMNVLRAEDSATYYCARYTGGGYFDYWGQGTTLTVSS
VL: DIQMTQTTSSLSASLGDRLTISCRASQDISNYLNWYQQKPDGTVKLLIYYTSRLHSGVPSRFSGSGSGTDYSLTISNLEQADIATYFCQQGDTLPWTFGGGTKLEIKR
notes: parental murine antibody; also called murine hybridoma 28G11; biotin-28G11
